Measurements taken from PMC9352680, “A comprehensive thermodynamic model for RNA binding by the Saccharomyces cerevisiae Pumilio protein PUF4”.

T1: PUF4 RNA-binding domain (Saccharomyces cerevisiae, UniProt P25339 537-888)
T1 sequence: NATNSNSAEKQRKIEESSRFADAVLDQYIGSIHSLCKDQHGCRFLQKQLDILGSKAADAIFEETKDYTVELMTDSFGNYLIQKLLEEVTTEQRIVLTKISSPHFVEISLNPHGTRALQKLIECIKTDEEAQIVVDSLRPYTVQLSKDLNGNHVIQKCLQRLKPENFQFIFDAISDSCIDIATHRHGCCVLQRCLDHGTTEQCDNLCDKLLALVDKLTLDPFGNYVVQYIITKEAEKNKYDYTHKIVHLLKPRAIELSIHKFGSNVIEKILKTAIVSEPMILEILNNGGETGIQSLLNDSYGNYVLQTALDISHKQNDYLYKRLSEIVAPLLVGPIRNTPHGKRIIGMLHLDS

B1: Ic_S2_P4E.1_K4.1_C4.1_H4.1_A4.1_[T5C]_[A6G]_F4.1_[T8C]_T4.1 (ssRNA)
RNA: UUUGAUUAAUAUGAUAUCGUUCUUUCUUGUACGUCAUUCUUUCUCGAUAUCAUAUUAAUCUUU
B2: Ic_S2_P4E.1_K4.1_C4.1_H4.1_A4.1_[T5C]_[A6C]_[T7A]_F4.1_[T8C]_T4.1 (ssRNA)
RNA: UUUGAUUAAUAUGAUAUCGUUCUUUCUUGUACCACAUUCUUUCUCGAUAUCAUAUUAAUCUUU
B3: Ic_S2_P4E.1_K4.1_C4.1_H4.1_A4.1_[T5C]_[A6C]_[T7C]_F4.1_[A9T]_T4.1 (ssRNA)
RNA: UUUGAUUAAUAUGAUAUCGUUCUUUCUUGUACCCUUUUCUUUCUCGAUAUCAUAUUAAUCUUU
B4: Ic_S2_P4E.1_K4.1_C4.1_H4.1_A4.1_[T5C]_[A6C]_F4.1_[T8C]_T4.1 (ssRNA)
RNA: UUUGAUUAAUAUGAUAUCGUUCUUUCUUGUACCUCAUUCUUUCUCGAUAUCAUAUUAAUCUUU
B5: Ic_S2_P4E.1_K4.1_C4.1_H4.1_A4.1_[T5C]_[A6C]_[T7C]_F4.1_[A9C]_T4.1 (ssRNA)
RNA: UUUGAUUAAUAUGAUAUCGUUCUUUCUUGUACCCUCUUCUUUCUCGAUAUCAUAUUAAUCUUU
B6: Ic_S2_P4E.1_K4.1_C4.1_H4.1_A4.1_[T5C]_[A6C]_[T7C]_F4.1_[T8C]_[A9G]_T4.1 (ssRNA)
RNA: UUUGAUUAAUAUGAUAUCGUUCUUUCUUGUACCCCGUUCUUUCUCGAUAUCAUAUUAAUCUUU
B7: Ic_S2_P4E.1_K4.1_C4.1_H4.1_A4.1_[T5C]_[A6T]_[T7G]_F4.1_[T8C]_T4.1 (ssRNA)
RNA: UUUGAUUAAUAUGAUAUCGUUCUUUCUUGUACUGCAUUCUUUCUCGAUAUCAUAUUAAUCUUU
B8: Ic_S2_P4E.1_K4.1_C4.1_H4.1_A4.1_[T5C]_[A6C]_F4.1_[T8A]_[A9T]_T4.1 (ssRNA)
RNA: UUUGAUUAAUAUGAUAUCGUUCUUUCUUGUACCUAUUUCUUUCUCGAUAUCAUAUUAAUCUUU
B9: Ic_S2_P4E.1_K4.1_C4.1_H4.1_A4.1_[T5C]_[A6C]_[T7A]_F4.1_[A9C]_T4.1 (ssRNA)
RNA: UUUGAUUAAUAUGAUAUCGUUCUUUCUUGUACCAUCUUCUUUCUCGAUAUCAUAUUAAUCUUU
B10: Ic_S2_P4E.1_K4.1_C4.1_H4.1_A4.1_[T5C]_[A6C]_[T7C]_F4.1_[T8A]_[A9T]_T4.1 (ssRNA)
RNA: UUUGAUUAAUAUGAUAUCGUUCUUUCUUGUACCCAUUUCUUUCUCGAUAUCAUAUUAAUCUUU
B11: Ic_S2_P4E.1_K4.1_C4.1_H4.1_A4.1_[T5C]_[A6G]_F4.1_[T8A]_T4.1 (ssRNA)
RNA: UUUGAUUAAUAUGAUAUCGUUCUUUCUUGUACGUAAUUCUUUCUCGAUAUCAUAUUAAUCUUU
B12: Ic_S2_P4E.1_K4.1_C4.1_H4.1_A4.1_[T5C]_[A6T]_[T7G]_F4.1_[T8G]_[A9T]_T4.1 (ssRNA)
RNA: UUUGAUUAAUAUGAUAUCGUUCUUUCUUGUACUGGUUUCUUUCUCGAUAUCAUAUUAAUCUUU
B13: Ic_S2_P4E.1_K4.1_C4.1_H4.1_A4.1_[T5C]_[A6C]_[T7G]_F4.1_[T8C]_[A9C]_T4.1 (ssRNA)
RNA: UUUGAUUAAUAUGAUAUCGUUCUUUCUUGUACCGCCUUCUUUCUCGAUAUCAUAUUAAUCUUU
B14: Ic_S2_P4E.1_K4.1_C4.1_H4.1_A4.1_[T5C]_[A6T]_[T7G]_F4.1_T4.1 (ssRNA)
RNA: UUUGAUUAAUAUGAUAUCGUUCUUUCUUGUACUGUAUUCUUUCUCGAUAUCAUAUUAAUCUUU
B15: Ic_S2_P4E.1_K4.1_C4.1_H4.1_A4.1_[T5C]_[A6C]_[T7G]_F4.1_[T8C]_[A9T]_T4.1 (ssRNA)
RNA: UUUGAUUAAUAUGAUAUCGUUCUUUCUUGUACCGCUUUCUUUCUCGAUAUCAUAUUAAUCUUU
B16: Ic_S2_P4E.1_K4.1_C4.1_H4.1_A4.1_[T5C]_[A6C]_[T7A]_F4.1_[T8G]_[A9T]_T4.1 (ssRNA)
RNA: UUUGAUUAAUAUGAUAUCGUUCUUUCUUGUACCAGUUUCUUUCUCGAUAUCAUAUUAAUCUUU
B17: Ic_S2_P4E.1_K4.1_C4.1_H4.1_A4.1_[T5C]_[A6C]_[T7A]_F4.1_[T8A]_[A9T]_T4.1 (ssRNA)
RNA: UUUGAUUAAUAUGAUAUCGUUCUUUCUUGUACCAAUUUCUUUCUCGAUAUCAUAUUAAUCUUU
B18: Ic_S2_P4E.1_K4.1_C4.1_H4.1_A4.1_[T5C]_[A6C]_[T7A]_F4.1_[T8C]_[A9G]_T4.1 (ssRNA)
RNA: UUUGAUUAAUAUGAUAUCGUUCUUUCUUGUACCACGUUCUUUCUCGAUAUCAUAUUAAUCUUU

Molecular target: T1, PUF4 RNA-binding domain
Test: Mg; RNA-MaP; 20 mM Na-HEPES pH 7.4, 30 mM KOAc, 0.75 mM MgCl2, 0.1% Tween-20, 5% glycerol, 0.1 mg/mL BSA, 2 mM DTT; 25 C; 0.0125-409.6 nM protein
Conditions: tags: N-His6-TEV cleaved; C-SNAP kept, Cy3B-labelled; label: tethered on chip by stalled RNA polymerase

Compared with UCUCUUUGUAUAUUUUCUCUU (ssRNA) [Ia_S1_P4E.1_K4.1_C4.1_H4.1_A4.1_F4.1_[A9T]_T4.1], UCUCUUUGUUUCUAUCUCUU (ssRNA) [Ib_S1_P3E.1_K3.1_C3.1_H3.1_[A4T]_A3.1_[A6C]_F3.1_T3.1] is higher in Kd: 0.00451 µM for the first, greater than 2.3 µM for the second.

Going from UCUCUUUGUCUUUAUCUCUU (ssRNA) [Ib_S1_P3E.1_K3.1_C3.1_H3.1_[A4C]_A3.1_[A6T]_F3.1_T3.1] to UCUCUUUGUGUUUAUCUCUU (ssRNA) [Ib_S1_P3E.1_K3.1_C3.1_H3.1_[A4G]_A3.1_[A6T]_F3.1_T3.1], the Kd falls from greater than 2.3 µM to 0.549 µM. The second binds more tightly here.

UCUCUUUGUUUGUAUCUCUU (ssRNA) [Ib_S1_P3E.1_K3.1_C3.1_H3.1_[A4T]_A3.1_[A6G]_F3.1_T3.1] and B1 are within 1.5-fold of each other in Kd: 0.133 µM for the first, 0.117 µM for the second.

Compared with B2, B3 is 11-fold lower in Kd: 0.162 µM for the first, 0.0144 µM for the second. The second binds more tightly here.

First: B4
Second: B5
The Kd of the first is 1.8-fold higher: 0.0441 µM for the first, 0.0245 µM for the second. The second binds more tightly here.

B6 and B7 are within 1.5-fold of each other in Kd: 0.595 µM for the first, 0.753 µM for the second.

B8 and B9 are within 1.5-fold of each other in Kd: 0.00929 µM for the first, 0.00915 µM for the second.

First: B10
Second: B11
The Kd of the first is 1.5-fold lower: 0.0814 µM for the first, 0.125 µM for the second.

B12 and B13 are within 1.5-fold of each other in Kd: 0.966 µM for the first, 0.736 µM for the second.

Compared with B14, B15 is 59-fold higher in Kd: 0.00261 µM for the first, 0.154 µM for the second. The first binds more tightly here.

Compared with B16, B17 is 8.3-fold lower in Kd: 0.171 µM for the first, 0.0206 µM for the second. The second binds more tightly here.

B18 gave a Kd of 0.271 µM.
